For assay [1], the target named is HLA-A*68:02. Description: IEDB peptide-MHC binding, cellular MHC/competitive/fluorescence; ≥ and ≤ were set here for values at or beyond the usual limits of such assays.
In a further assay the target is HLA-A*02:03. The assay is described as above.
The next assay concerns the target HLA-A*02:06. The experiment in a line: IEDB peptide-MHC binding, purified MHC/competitive/radioactivity; ≥ and ≤ were set here for values at or beyond the usual limits of such assays.
Assay [2] has as its target HLA-A*02:01. The assay is described as above.
The target in another assay is HLA-A*02:02. The description is as above.
For assay [3], the target named is HLA-A*02:01. Description: IEDB peptide-MHC binding, cellular MHC/competitive/fluorescence; ≥ and ≤ were set here for values at or beyond the usual limits of such assays.
For assay [4], the target named is HLA-A*68:02. Description: IEDB peptide-MHC binding, purified MHC/competitive/radioactivity; ≥ and ≤ were set here for values at or beyond the usual limits of such assays.
The mark [5] stands for this setting: source organism: Vaccinia virus WR.
The mark [6] stands for this setting: source organism: Mammarenavirus whitewaterense.
The mark [7] stands for this setting: source organism: Mammarenavirus machupoense.
The mark [8] stands for this setting: source organism: Influenza A virus.
[9] abbreviates: source organism: Mammarenavirus guanaritoense.

Bounds are passed on as bounds.

As for ITDDSDDYEL, the IC50 in the assay with HLA-A*68:02 [1] (setting [5]) was 11900 nM; with HLA-A*02:03 (setting [5]) it was 11900 nM; in the assay with HLA-A*02:06 (setting [5]), 49 nM; with HLA-A*02:01 [2] (setting [5]), 1730 nM; with HLA-A*02:02 (setting [5]) it was 687 nM.
As to VLTSVDIET, the IC50 is 37500 nM in the assay with HLA-A*68:02 [1] (setting [5]); 11300 nM with HLA-A*02:03 (setting [5]); 14 nM with HLA-A*02:06 (setting [5]); 136 nM in the assay with HLA-A*02:01 [2] (setting [5]); 382 nM in the assay with HLA-A*02:02 (setting [5]).
In the same order, the values of VMDTLNGIMM are 6920 nM, 5160 nM, 403 nM, 33 nM and 7.6 nM.
Consider GLLQFIVFL, for which the concentration for half-maximal inhibition (IC50) with HLA-A*68:02 [1] (setting [6]) was 12000 nM; in the assay with HLA-A*02:03 (setting [6]) it was 7720 nM; with HLA-A*02:06 (setting [6]) it was 12 nM; with HLA-A*02:01 [2] (setting [6]), 0.0075 nM; in the assay with HLA-A*02:02 (setting [6]), 0.6 nM.
Consider KQIMECSRML, for which the IC50 was found to be 7470 nM with HLA-A*68:02 [1] (setting [5]); 29600 nM in the assay with HLA-A*02:03 (setting [5]); 60 nM with HLA-A*02:06 (setting [5]); 357 nM with HLA-A*02:01 [2] (setting [5]); 55 nM with HLA-A*02:02 (setting [5]).
As for LNKSDSSWAV, the IC50 in the assay with HLA-A*68:02 [1] (setting [7]) turned out to be 8700 nM; with HLA-A*02:03 (setting [7]), 5260 nM; with HLA-A*02:06 (setting [7]), 2190 nM; in the assay with HLA-A*02:01 [2] (setting [7]) it was 1230 nM; with HLA-A*02:02 (setting [7]), 550 nM.
Take VQTLISLNSM: the IC50 came to 50900 nM with HLA-A*68:02 [1] (setting [5]); 5820 nM with HLA-A*02:03 (setting [5]); 853 nM in the assay with HLA-A*02:06 (setting [5]); 259 nM with HLA-A*02:01 [2] (setting [5]); 1560 nM with HLA-A*02:02 (setting [5]).
For the sequence VQLSNNKYVL, the half-inhibitory concentration (IC50) with HLA-A*68:02 [1] (setting [5]) is no less than 70000 nM; in the assay with HLA-A*02:03 (setting [5]), 9490 nM; in the assay with HLA-A*02:06 (setting [5]) it was 170 nM; in the assay with HLA-A*02:01 [2] (setting [5]), 4590 nM; with HLA-A*02:02 (setting [5]), 288 nM.
As for MVEYLENQL, the IC50 came to 12000 nM with HLA-A*02:01 [3] (setting [5]); 6460 nM in the assay with HLA-A*02:03 (setting [5]); 3960 nM with HLA-A*02:06 (setting [5]); 591 nM with HLA-A*68:02 [4] (setting [5]); 343 nM with HLA-A*02:02 (setting [5]).
With CTMERTNDLT, the IC50 with HLA-A*02:01 [3] (setting [5]) came to 18600 nM; with HLA-A*02:03 (setting [5]) it was 16100 nM; with HLA-A*02:06 (setting [5]) it was 1010 nM; with HLA-A*68:02 [4] (setting [5]), 8.7 nM; in the assay with HLA-A*02:02 (setting [5]) it was 4050 nM.
As to MLIIFWFSL, the IC50 was 6910 nM with HLA-A*68:02 [1] (source organism: SARS-CoV1); 13000 nM in the assay with HLA-A*02:03 (source organism: SARS-CoV1); 490 nM in the assay with HLA-A*02:06 (source organism: SARS-CoV1); 1160 nM with HLA-A*02:01 [2] (source organism: SARS-CoV1); 132 nM with HLA-A*02:02 (source organism: SARS-CoV1).
Regarding YALEPRKEI, the IC50 with HLA-A*02:01 [3] (setting [5]) was found to be 9810 nM; in the assay with HLA-A*02:03 (setting [5]) it was 7070 nM; with HLA-A*02:06 (setting [5]) it was 4110 nM; in the assay with HLA-A*68:02 [4] (setting [5]), 710 nM; in the assay with HLA-A*02:02 (setting [5]), 3700 nM.
For the sequence VLFQNWGI, the IC50 worked out at 54800 nM in the assay with HLA-A*68:02 [1] (setting [8]); 10100 nM with HLA-A*02:03 (setting [8]); 2640 nM in the assay with HLA-A*02:06 (setting [8]); 849 nM with HLA-A*02:01 [2] (setting [8]); 1560 nM with HLA-A*02:02 (setting [8]).
Consider KIDKLTFQI, for which the IC50 with HLA-A*68:02 [1] (setting [5]) turned out to be 36900 nM; with HLA-A*02:03 (setting [5]), 10600 nM; in the assay with HLA-A*02:06 (setting [5]), 42 nM; with HLA-A*02:01 [2] (setting [5]), 134 nM; with HLA-A*02:02 (setting [5]) it was 141 nM.
Turning to CTNDIYCDEI, the IC50 in the assay with HLA-A*02:01 [3] (setting [5]) turned out to be 9060 nM; with HLA-A*02:03 (setting [5]) it was 5720 nM; in the assay with HLA-A*02:06 (setting [5]), 4760 nM; with HLA-A*68:02 [4] (setting [5]) it was 192 nM; in the assay with HLA-A*02:02 (setting [5]), 2460 nM.
As to TNAEFTFQL, the IC50 in the assay with HLA-A*02:01 [3] (setting [9]) worked out at 5020 nM; with HLA-A*02:03 (setting [9]) it was 15100 nM; in the assay with HLA-A*02:06 (setting [9]), 3620 nM; with HLA-A*68:02 [4] (setting [9]), 5.3 nM; in the assay with HLA-A*02:02 (setting [9]) it was 404 nM.
Regarding VVYHDDDNTT, the IC50 in the assay with HLA-A*68:02 [1] (setting [5]) turned out to be 27800 nM; with HLA-A*02:03 (setting [5]), 12600 nM; with HLA-A*02:06 (setting [5]), 3920 nM; with HLA-A*02:01 [2] (setting [5]), 2980 nM; in the assay with HLA-A*02:02 (setting [5]) it was 1860 nM.
For the sequence IASILSLET, the IC50 with HLA-A*68:02 [1] (setting [5]) was 7760 nM; with HLA-A*02:03 (setting [5]), 7480 nM; with HLA-A*02:06 (setting [5]) it was 318 nM; with HLA-A*02:01 [2] (setting [5]), 2540 nM; with HLA-A*02:02 (setting [5]) it was 3660 nM.
Consider SVDVDIYDA, for which the concentration for half-maximal inhibition (IC50) in the assay with HLA-A*02:01 [3] (setting [5]) worked out at 13300 nM; in the assay with HLA-A*02:03 (setting [5]), 11900 nM; in the assay with HLA-A*02:06 (setting [5]), 953 nM; in the assay with HLA-A*68:02 [4] (setting [5]), 345 nM; with HLA-A*02:02 (setting [5]) it was 1200 nM.
For DISSFYWSL, the IC50 with HLA-A*02:01 [3] (setting [5]) was found to be 8510 nM; with HLA-A*02:03 (setting [5]), 6870 nM; with HLA-A*02:06 (setting [5]) it was 3970 nM; in the assay with HLA-A*68:02 [4] (setting [5]) it was 28 nM; in the assay with HLA-A*02:02 (setting [5]) it was 391 nM.

Usually IC50 stands for the point on the concentration scale where inhibition reaches its midpoint.

(Values after the Immune Epitope Database (IEDB).)
